Results as given in publication PMC10164577, “CAF-1 deposits newly synthesized histones during DNA replication using distinct mechanisms on the leading and lagging strands”.

B1: 33 bp DNA (dsDNA)
DNA 1: GCTGTCTACGAGCAATTGAGCGGCCTCGGCACC
DNA 2: GGTGCCGAGGCCGCTCAATTGCTCGTAGACAGC
B2: 53 bp DNA (dsDNA)
DNA 1: CGGTGCTAGAGCTGTCTACGAGCAATTGAGCGGCCTCGGCACCGGGATTCTGA
DNA 2: TCAGAATCCCGGTGCCGAGGCCGCTCAATTGCTCGTAGACAGCTCTAGCACCG
B3: 43 bp DNA (dsDNA)
DNA 1: CTAGAGCTGTCTACGAGCAATTGAGCGGCCTCGGCACCGGGAT
DNA 2: ATCCCGGTGCCGAGGCCGCTCAATTGCTCGTAGACAGCTCTAG

Target: CAF-1 (Cac1-Cac2-Cac3) (Saccharomyces cerevisiae? (yeast), UniProt Q12495;Q04199;P13712 1-606;1-468;1-422)
Assay: EMSA; EMSA: 25 mM Tris pH 7.5, 150 mM NaCl, 1 mM EDTA, 0.02% Tween-20, 1 mM TCEP, 50 nM DNA, 6% PAGE; SEC: 50 mM HEPES pH 7.5, 200 mM NaCl, 0.01% IGEPAL, 1 mM TCEP, 10 mM MgCl2, PCNA loading at 30 C with 3 mM ATP, CAF-1 at room temperature
Conditions: protein: recombinant, chain copies: 2;2;2, blunt

Row | Binder | Kd (label: 5' Alexa Fluor 647 on forward strand) [nM] | Kd [nM]
1 | B1 | 330 | –
2 | B2 | – | 180
3 | B3 | – | 230
